Laboratory results published in paper PMC8133395 (Cell reports, 2021).

Biological target: T1, EBOV sGP (Mayinga) (Zaire ebolavirus, Mayinga, GenBank …, UniProt P60170)
T1 construct: source: FreeStyle-293-F, transiently transfected, purified (Strep-Tactin, SEC)
Test: ELISA
Details: both partners purified

T1 sequence (P60170 33-314): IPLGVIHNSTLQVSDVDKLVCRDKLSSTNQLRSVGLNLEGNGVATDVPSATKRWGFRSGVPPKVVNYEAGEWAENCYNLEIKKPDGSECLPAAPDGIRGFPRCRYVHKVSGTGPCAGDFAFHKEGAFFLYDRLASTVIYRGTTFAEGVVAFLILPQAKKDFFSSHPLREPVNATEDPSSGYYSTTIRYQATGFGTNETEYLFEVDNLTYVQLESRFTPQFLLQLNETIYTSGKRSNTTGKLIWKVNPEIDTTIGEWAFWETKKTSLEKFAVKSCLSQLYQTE

B1: EBOV-548 (antibody, V domains shown)
VH: QVQVEESGGGVVQPGGSLRLSCAASGFMFSNYGMHWVRQAPGKGLEWMAFIRYDDSKKFYADSVKGRFTISRDNSKNTLYLQMNSLRAEDTALYYCAKELLQVYTSAWGEGHSYYYALDVWGLGTAVTVSS
VL: DIQMTQSPSSVSASVGDRVTITCRASQDISNWLAWYQQKPGKAPELLIYTASILQSGVSSRFSGSGSGTDFTLTISSLQPEDSATYYCQQGKSFPYTFGQGTKLEIK
binding result: binds
